# Measured values reported in patent US8648039B2, “Use of alpha-lactalbumin for regulations of glycemia” (Compagnie Laitiere Europeene, priority 2006, dated 2014).
# Tests used:
# [1] = tested on: male rats of the Wistar Hannover strain; experiment: Postprandial glycemia with glutathione synthesis inhibited by buthionine sulfoximine; format: in vivo; conditions: buthionine sulfoximine injected one hour before the meal; acute
# Protocol: In order to confirm the role of glutathione in the regulation of glycemia and the advantage of α-lactalbumin as a cysteine source from the viewpoint of synthesis of this compound, we used a glutathione-depleted rat model, by inhibiting the synthesis of this compound with buthionine sulfoximine treatment. In these animals, glucose tolerance and insulin sensitivity were measured, and also various parameters related to the oxidative stress state. The replenishing of glutathione stores and the change in the regulation of glycemia were measured in response to diets with various levels of enrichment in α-lactalbumin and cysteine supplementation.
# The methodology of example 2, limited to the acute part of the study, was repeated. Four groups of 10 male rats of the Wistar Hannover strain were operated on, after their reception, in order to put in place a venous catheter. This catheter is introduced via the left jugular, descended to the level of the vena cava, and its proximal part interconnects at the cranial level, where it is secured in place so as to allow blood samples to be taken, in the desired amount, from a conscious animal.
# One week later, the rats were divided up into 4 groups subjected to the sucrose-rich normal protein meals C0, C1, C2 and alphalac. An injection of buthionine sulfoximine, a […], was given beforehand (one hour before the meal). […]
# [2] = tested on: IRS1 (insulin receptor substrate 1) protein; experiment: Activation of the insulin signaling pathway (IRS1 immunoprecipitation, Western blotting) at 6 weeks; format: in vivo, male rats of the Wistar Hannover strain; conditions: muscle; 6 weeks of diet
# Protocol: Four groups of 8 male rats of the Wistar Hannover strain were subjected for 6 weeks to the same sucrose-containing diets as those used in experiments 2 and 3 (P14 containing sucrose, C1, C2 and alphalac). An additional group of 8 rats, this being a non-sucrose control group, fed with a diet P14 containing 14 energy % of total milk proteins without sucrose, was added. This group constitutes the “normal” or “healthy” positive control in the evaluation of the insulin signaling pathway modifications related to the high-sucrose diet.
# At 6 weeks, the anesthetized rats receive a dose of 0.750 mU.kg^−1 of insulin, directly injected into the vena cava. This injection makes it possible to light up the insulin signaling pathway and to evaluate the differences in activation between the various groups. 5 min after the injection, the muscle and the liver are removed, ground in a lysis buffer and directly immunoprecipitated with an antibody which recognizes the IRS1 (insulin receptor substrate 1) protein. The immunoprecipitated samples are then loaded onto a gel and then blotted onto a membrane (Western blotting technique). The membranes are successively hybridized with an antiphosphotyrosine antibody (tyrosine phosphorylation of the IRS protein is the first step in the insulin signaling pathway) and then an anti-total IRS1 antibody (FIG. 10).
molecule,measurement,setting,value
"α-lactalbumin (protein, UniProt P00711 20-142, looked up, milk serum protein; bovine form 14.2 kD, 123 amino acids) Alpha-lactalbumin: EQLTKCEVFRELKDLKGYGGVSLPEWVCTTFHTSGYDTQAIVQNNDSTEYGLFQINNKIWCKDDQNPHSSNICNISCDKFLDDDLTDDIMCVKKILDKVGINYWLAHKALCSEKLDQWLCEKL",influence of inhibition of glutathione synthesis on the effect on postprandial glycemia,[1],does not modify
same,expression of the IRS protein,[2],attenuated
